# Measurements as given in the supplement of paper PMC11908140.
# B1: library; numbered along this chain (parent)
# chain: MRKPRAAVGSGHRKQAASQEGRQKHAKNNSQAKPSACDGLARQPEEVVLQASVSSYHLFRDVAEVTAFRGSLLSWYDQEKRDLPWRRRAEDEMDLDRRAYAVWVSEVMLQQTQVATVINYYTGWMQKWPTLQDLASASLEEVNQLWAGLGYYSRGRRLQEGARKVVEELGGHMPRTAETLQQLLPGVGRYTAGAIASIAFGQATGVVDGNVARVLCRVRAIGADPSSTLVSQQLWGLAQQLVDPARPGDFNQAAMELGATVCTPQRPLCSQCPVESLCRARQRVEQEQLLASGSLSGSPDVEECAPNTGQCHLCLPPSEPWDQTLGVVNFPRKASRKPPREESSATCVLEQPGALGAQILLVQRPNSGLLAGLWEFPSVTWEPSEQLQRKALLQELQRWAGPLPATHLRHLGEVVHTFSHIKLTYQVYGLALEGQTPVTTVPPGARWLTQEEFHTAAVSTAMKKVFRVYQGQQPGTCMGSKRSQVSSPCSRKKPRMGQQVLDNFFRSHISTDAHSLNSAAQ
# Variants of: B1
# Experiment: 8OG:A repair function score (normalized; synonymous = 0, nonsense = -1) (normalized log-likelihood score); higher = more repair activity (WT-like)
# Conditions: with 8OG:A DNA repair reporter (GFP) in HEK-293 MUTYH KO cells
# In short: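 Lentiviral MUTYH cDNA NNN codon-scan libraries in HEK-293 MUTYH knockout cells (10 pg/ml doxycycline) were co-transfected with an 8OG:A GFP repair reporter plus mCherry. At 72 h, viable mCherry+ cells were sorted into GFP+ (repair) and GFP− bins, three replicates per tile, then tile amplicons were sequenced. Per-tile Rosace fitness scores became a normalized repair function score anchored on synonymous and nonsense distributions. Synonymous medians were set to 0 and nonsense to -1; variants under 300 counts per million at the start were removed.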
row,Variant,8OG:A repair function score
1,A192L,-1.11
2,A519T,-0.0144
3,A519S,0.00395
4,N210L,-0.937
5,N210I,-1
6,A456V,-0.16
7,E285R,0.00385
8,Q386K,-0.213
9,G155Y,-0.667
10,G155I,-0.489
11,R332Q,-0.0904
12,R332A,-0.0476
13,R332I,-0.256
14,T511R,0.00505
15,R389W,-0.531
16,L40D,0.21
17,R2I,0.124
18,R398A,0.0255
19,V242A,-0.526
20,G479Y,0.025
21,S510H,0.0212
22,A6K,-0.0201
23,A334N,0.0217
24,Q182F,-0.161

row,Variant,8OG:A repair function score
1,D249E,-0.208
2,D249R,-0.663
3,K463E,-0.265
4,S227Y,-0.307
5,Q472W,0.027
6,H508I,-0.0148
7,H508G,-0.00256
8,V500I,0.0202
9,G497R,-0.0166
10,V348K,-1.21
11,E385Y,-0.00387
12,L158Q,-1.31
13,F505Q,0.0246
14,F505H,-0.0303
15,V441H,-0.533
16,W381G,0.0649
17,A177Y,-0.194
18,A253P,-1.02
19,H416G,-0.0614
20,K493I,-0.0174
21,M125K,-0.523
22,L268E,-0.133
23,P488H,0.0202
24,R60C,-0.081

row,Variant,8OG:A repair function score
1,L215M,-0.129
2,L215Y,-0.0538
3,R491E,0.0286
4,R491K,0.0262
5,S515F,-0.00769
6,V142D,-1.15
7,V142G,-0.5
8,V48W,0.0774
9,R156A,-0.122
10,C278M,-1.52
11,G193L,-0.637
12,K390Q,0.474
13,K390E,-0.0669
14,S153K,-0.0744
15,E256T,-0.514
16,R364T,-0.411
17,V211N,-0.806
18,V211L,-0.586
19,G123F,-0.0297
20,W399G,-0.541
21,E302M,-0.216
22,S294C,-0.00327
23,S294K,-0.0502
24,P317H,-0.0747

row,Variant,8OG:A repair function score
1,S226W,-0.231
2,A513F,-0.00203
3,C216M,-0.646
4,V328N,-0.0823
5,V328Q,0.0461
6,V328C,0.0567
7,P306S,-0.0289
8,P306L,-0.00346
9,E350V,-0.0826
10,E350K,-0.17
11,S276M,-0.0454
12,A101Y,-0.0479
13,A101G,-0.024
14,I118Y,-0.223
15,I118W,-0.13
16,K464S,-0.198
17,T112S,-0.314
18,P377W,-1.42
19,Y425R,-0.476
20,Y425T,-0.255
21,Y190R,-1.06
22,V214P,-1.01
23,W321R,-0.203
24,F418A,-0.333

row,Variant,8OG:A repair function score
1,Q111C,-0.764
2,P352A,-0.0351
3,V207Y,-0.858
4,V207T,-0.785
5,V207G,-1.03
6,V207R,-0.947
7,V207P,-1.01
8,K481I,0.000486
9,V458S,-0.192
10,Q126C,-0.239
11,T130K,-0.0846
12,T130V,-0.178
13,T130P,-0.9
14,M173K,-0.971
15,M173A,-0.537
16,T228S,0.124
17,T228R,0.329
18,V165I,-0.0615
19,V165P,-1.08
20,V165S,-0.732
21,P402Q,-0.236
22,S270D,-0.0528
23,S270T,-0.0207
24,L313F,-0.0503

row,Variant,8OG:A repair function score
1,L313E,-0.601
2,E168P,-0.661
3,N119R,0.0743
4,R189C,-0.258
5,R88K,-0.364
6,Y151S,-1.29
7,Y151T,-0.587
8,Y151F,-0.064
9,Q239T,-0.143
10,R495H,0.00173
11,L180V,-0.497
12,L180T,-0.439
13,L180R,-1.18
14,R97W,-0.346
15,M478S,-0.00625
16,R163G,-0.378
17,R219V,-0.809
18,E79H,-0.0574
19,V117I,-0.166
20,R98K,-0.0169
21,A520D,-0.0192
22,P129D,-0.0868
23,P129E,-0.084
24,P129Y,-0.513

row,Variant,8OG:A repair function score
1,P129I,-0.53
2,Q159K,0.0628
3,Q159A,-0.0252
4,A147I,-0.125
5,A147L,-0.207
6,Q310V,-0.0252
7,A354C,-0.078
8,L423I,-0.059
9,V230E,-0.881
10,K80Q,-0.0315
11,K80E,-0.31
12,K80F,-0.364
13,T380D,0.0495
14,P320K,-0.1
15,E319A,-0.00684
16,G444F,-0.32
17,Y469P,-0.718
18,M108R,-1.2
19,A457D,-0.44
20,L72S,-0.775
21,R446V,-0.116
22,R446P,-1.13
23,E375K,-0.462
24,V104W,-0.707

row,Variant,8OG:A repair function score
1,E106R,-1.42
2,E178I,-0.0162
3,G171H,-0.42
4,H172G,-0.216
5,H172E,0.017
6,S52K,0.0066
7,S52D,-0.0111
8,A445R,-0.53
9,A445I,-0.318
10,W235I,-0.342
11,W235P,-1
12,T417Q,-0.0624
13,S231E,0.0501
14,A63Y,-0.056
15,L290H,-0.0116
16,A89Y,-0.00929
17,T460S,-0.019
18,G471V,0.00448
19,D77K,-0.0637
20,A305V,-0.0191
21,Q202A,0.00201
22,G326Q,-0.123
23,P443W,-0.309
24,A51S,0.0659

row,Variant,8OG:A repair function score
1,D502L,-0.0337
2,F200Q,-0.502
3,P331H,-0.439
4,L396S,-0.52
5,H410D,-0.324
6,H410C,-0.293
7,H410W,-0.367
8,H410E,-0.292
9,G188A,-0.365
10,R42D,0.0284
11,R266M,-0.0578
12,S487G,-0.00491
13,P338F,-0.101
14,Y121K,-1.13
15,H514C,-0.00794
16,S507V,-0.000918
17,E45K,-0.0451
18,R340D,-0.385
19,R340K,-0.0186
20,E140H,-0.253
21,C314V,-0.631
22,P365G,-0.137
23,P365N,0.119
24,V102A,-0.644

row,Variant,8OG:A repair function score
1,G412I,-0.788
2,G412S,-0.26
3,A220P,-0.978
4,T440D,-0.0869
5,K422G,-0.491
6,F504S,0.0238
7,F504C,-0.00333
8,Q388I,0.175
9,H407A,0.245
10,D243S,-0.358
11,Q233E,-0.306
12,Q233V,0.335
13,T406Y,-0.265
14,T406S,-0.184
15,L370T,-0.332
16,R217H,-0.835
17,R217D,-1.02
18,T179A,-0.088
19,Q521V,-0.0096
20,K333H,-0.0128
21,Y120L,-0.231
22,G186V,-0.852
23,E160N,-0.0629
24,W447I,-0.784

row,Variant,8OG:A repair function score
1,T449V,-0.286
2,L403Y,-0.513
3,Q397H,-0.717
4,L315C,-0.0705
5,L315H,-0.308
6,G368R,-0.193
7,G368S,-0.236
8,G368C,-0.369
9,L408M,-0.0275
10,Q240N,-0.999
11,G209E,-0.837
12,L83E,-0.902
13,W128S,-0.935
14,Q450A,-0.0533
15,D322R,-0.044
16,G429H,-0.299
17,G429V,-0.00866
18,S74Y,0.00544
19,Q288C,-0.0156
20,L169G,-0.273
21,A115K,-0.0104
22,V206G,-0.835
23,V206W,-1.03
24,G258V,-1.2

row,Variant,8OG:A repair function score
1,S318I,0.00356
2,E303C,-0.0302
3,F68Q,-0.906
4,F68D,-1.87
5,F68I,-0.126
6,A345G,-0.243
7,R81K,-0.209
8,P84K,-0.876
9,P84N,-0.796
10,P84E,-0.125
11,E275R,0.00881
12,C347F,-0.387
13,A99P,-0.584
14,A400R,-0.432
15,V427P,-1.13
16,V379W,-0.453
17,R175Y,-0.175
18,R175P,-0.229
19,R175W,-0.356
20,L432N,-0.504
21,F250Y,0.0779
22,A371V,-0.554
23,A371N,-0.476
24,R482W,0.0248

row,Variant,8OG:A repair function score
1,R482Q,0.0234
2,L229A,0.087
3,I221P,-1.01
4,V53I,-0.0188
5,V53M,-0.112
6,M255K,-1.01
7,K337N,-0.132
8,Q144D,-0.5
9,Q144K,-7.85e-05
10,D96I,-0.341
11,E46C,0.0656
12,T204A,-0.0766
13,G372V,-0.75
14,C477R,0.000623
15,G161Q,-0.911
16,V47Q,-0.0401
17,Q426Y,0.0116
18,A245S,0.0557
19,A245V,0.000414
20,P474D,0.00257
21,V468G,-0.557
22,Y76S,-1.16
23,Y428E,-1.1
24,M496K,0.00764

row,Variant,8OG:A repair function score
1,A137W,-1.02
2,L184N,-0.987
3,L184T,-0.62
4,A194L,-0.733
5,A194Q,-0.577
6,E382V,0.0267
7,E382C,-0.16
8,E382D,-0.0303
9,P267F,-0.919
10,T191L,-0.585
11,T191N,-0.68
12,S486Y,0.00541
13,S486Q,-0.0168
14,V114Q,-0.313
15,I509T,0.026
16,L295V,0.0106
17,P185E,-0.168
18,D91W,-0.00643
19,D91K,0.00215
20,A357P,0.04
21,A357L,-0.0718
22,A212F,-0.426
